# Test results from US20090068637A1 (published 2009).
# T1: fusion protein HBc-D123 (HBV)
# T1 chain: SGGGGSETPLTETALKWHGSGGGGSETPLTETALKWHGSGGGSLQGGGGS
# T2: fusion protein HBc-D125 (HBV)
# T2 chain: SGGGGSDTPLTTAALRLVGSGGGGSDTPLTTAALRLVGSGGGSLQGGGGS
# T3: fusion protein HBc-122 (HBV)
# T3 chain: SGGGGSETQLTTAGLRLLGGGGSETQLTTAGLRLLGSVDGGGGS
# T4: fusion protein HBc-124 (HBV)
# T4 chain: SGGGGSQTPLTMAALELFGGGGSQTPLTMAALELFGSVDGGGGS
# T5: fusion protein HBc-128 (HBV)
# T5 chain: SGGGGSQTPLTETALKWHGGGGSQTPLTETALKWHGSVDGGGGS
# B1: monoclonal antibody 8H5 (antibody, V domains shown)
# VH: QVQLQQSGAELMKPGASVKISCKATGYTFSNYWIEWIKQRPGHGLEWIGEILPGSDRTNYNGKFKGKATFTADTSSNTAHMQLSSLTSEDSAVYYCANRYDGYYFGLDYWGQGTSVAVSS
# VL: EIVLTQSPAIMSASLGEKVTMSCRASSSVNFVYWYQQRSDASPKLLIYYSSNLAPGVPPRFSGSGSGNSYSLTISGLEGEDAATYYCQHFTSSPYTFGGGTNLEIKR
# B2: monoclonal antibody 2F2 (antibody, V domains shown)
# VH: QVQLKESGPGLVAPSQRLSITCTVSGFSLTGYGVHWIRQSPGKGLEWLGMIWAEGRTDYNSVLKSRLSINKDNSRSQVFLEMNSLQTDDTARYYCAREVITTEAWYFDVWGQGTSVTES
# VL: DIVMTQSPATLSVTPGDRVSLSCRASQSISDYLYWYQQKSHESPRLLIKYASQSISGIPSRFSGSGSGSDFTLTINSVEPEDVGMYYCQNGHTFPLTFGAGTKLEIKR
# Experiments:
# fusion protein HBc-D123 = target: T1, fusion protein HBc-D123; assay: ELISA, fusion protein coated at 10 ug/ml
# fusion protein HBc-D125 = target: T2, fusion protein HBc-D125; assay: ELISA, fusion protein coated at 10 ug/ml
# [1] = target: T6, HA of H5N1 virus strain GD3 (avian influenza virus H5N1); assay: cell-based or functional assay
# [2] = target: T7, HA of H5N1 virus strain YN1 (avian influenza virus H5N1); assay: cell-based or functional assay
# [3] = target: T8, HA of H5N1 virus strain IDN1.1 (avian influenza virus H5N1); assay: cell-based or functional assay
# [4] = target: T9, HA of H5N1 virus strain VTM2 (avian influenza virus H5N1); assay: cell-based or functional assay
# [5] = target: T10, HA of H5N1 virus strain VTM1.1 (avian influenza virus H5N1); assay: cell-based or functional assay
# [6] = target: T11, HA of H5N1 virus strain VNM2.1 (avian influenza virus H5N1); assay: cell-based or functional assay
# [7] = target: T12, HA of H5N1 virus strain IDN2 (avian influenza virus H5N1); assay: cell-based or functional assay
# [8] = target: T13, HA of H5N1 virus strain VTM3 (avian influenza virus H5N1); assay: cell-based or functional assay
# [9] = target: T14, HA of H5N1 virus strain IDN3 (avian influenza virus H5N1); assay: cell-based or functional assay
# [10] = target: T15, HA of H5N1 virus strain VTM4 (avian influenza virus H5N1); assay: cell-based or functional assay
# [11] = target: T16, HA of H5N1 virus strain GD1 (avian influenza virus H5N1); assay: cell-based or functional assay
# [12] = target: T17, HA of H5N1 virus strain GD2 (avian influenza virus H5N1); assay: cell-based or functional assay
# [13] = target: T18, HA of H5N1 virus strain IDN4 (avian influenza virus H5N1); assay: cell-based or functional assay
# [14] = target: T19, HA of H5N1 virus strain MB2 (avian influenza virus H5N1); assay: cell-based or functional assay
# [15] = target: T20, HA of H5N1 virus strain IDN5 (avian influenza virus H5N1); assay: cell-based or functional assay
# [16] = target: T21, HA of H5N1 virus strain HN1 (avian influenza virus H5N1); assay: cell-based or functional assay
# [17] = target: T22, HA of H5N1 virus strain MIX3 (avian influenza virus H5N1); assay: cell-based or functional assay
# [18] = target: T23, HA of H5N1 virus strain MIX1 (avian influenza virus H5N1); assay: cell-based or functional assay
# [19] = target: T24, HA of H5N1 virus strain HN2 (avian influenza virus H5N1); assay: cell-based or functional assay
# [20] = target: T25, HA of H5N1 virus strain MB1 (avian influenza virus H5N1); assay: cell-based or functional assay
# [21] = target: T26, HA of H5N1 virus strain MIX2 (avian influenza virus H5N1); assay: cell-based or functional assay
# fusion protein HBc-122 = target: T3, fusion protein HBc-122; assay: indirect ELISA, fusion protein coated at 10 ug/ml, 12 mAb tested
# fusion protein HBc-124 = target: T4, fusion protein HBc-124; assay: as above
# fusion protein HBc-128 = target: T5, fusion protein HBc-128; assay: as above
# [22] = target: T6, HA of H5N1 virus strain GD3; assay: cell-based or functional assay; remark: listed apart in the source
# [23] = target: T7, HA of H5N1 virus strain YN1; assay: cell-based or functional assay; remark: listed apart in the source
# [24] = target: T8, HA of H5N1 virus strain IDN1.1; assay: cell-based or functional assay; remark: listed apart in the source
# [25] = target: T9, HA of H5N1 virus strain VTM2; assay: cell-based or functional assay; remark: listed apart in the source
# [26] = target: T10, HA of H5N1 virus strain VTM1.1; assay: cell-based or functional assay; remark: listed apart in the source
# [27] = target: T11, HA of H5N1 virus strain VNM2.1; assay: cell-based or functional assay; remark: listed apart in the source
# [28] = target: T12, HA of H5N1 virus strain IDN2; assay: cell-based or functional assay; remark: listed apart in the source
# [29] = target: T13, HA of H5N1 virus strain VTM3; assay: cell-based or functional assay; remark: listed apart in the source
# [30] = target: T14, HA of H5N1 virus strain IDN3; assay: cell-based or functional assay; remark: listed apart in the source
# [31] = target: T15, HA of H5N1 virus strain VTM4; assay: cell-based or functional assay; remark: listed apart in the source
# [32] = target: T16, HA of H5N1 virus strain GD1; assay: cell-based or functional assay; remark: listed apart in the source
# [33] = target: T17, HA of H5N1 virus strain GD2; assay: cell-based or functional assay; remark: listed apart in the source
# [34] = target: T18, HA of H5N1 virus strain IDN4; assay: cell-based or functional assay; remark: listed apart in the source
# [35] = target: T19, HA of H5N1 virus strain MB2; assay: cell-based or functional assay; remark: listed apart in the source
# [36] = target: T20, HA of H5N1 virus strain IDN5; assay: cell-based or functional assay; remark: listed apart in the source
# [37] = target: T21, HA of H5N1 virus strain HN1; assay: cell-based or functional assay; remark: listed apart in the source
# [38] = target: T22, HA of H5N1 virus strain MIX3; assay: cell-based or functional assay; remark: listed apart in the source
# [39] = target: T23, HA of H5N1 virus strain MIX1; assay: cell-based or functional assay; remark: listed apart in the source
# [40] = target: T24, HA of H5N1 virus strain HN2; assay: cell-based or functional assay; remark: listed apart in the source
# [41] = target: T25, HA of H5N1 virus strain MB1; assay: cell-based or functional assay; remark: listed apart in the source
# [42] = target: T26, HA of H5N1 virus strain MIX2; assay: cell-based or functional assay; remark: listed apart in the source
binder,measurement,setting,value
B1,binding result,fusion protein HBc-D123,binds
same,binding result,fusion protein HBc-D125,binds
same,HI titer,[1],12800 titer
same,HI titer,[2],3200 titer
same,HI titer,[3],12800 titer
same,HI titer,[4],6400 titer
same,HI titer,[5],12800 titer
same,HI titer,[6],6400 titer
same,HI titer,[7],1600 titer
same,HI titer,[8],6400 titer
same,HI titer,[9],3200 titer
same,HI titer,[10],1600 titer
same,HI titer,[11],12800 titer
same,HI titer,[12],12800 titer
same,HI titer,[13],12800 titer
same,HI titer,[14],6400 titer
same,HI titer,[15],6400 titer
same,HI titer,[16],12800 titer
same,HI titer,[17],12800 titer
same,HI titer,[18],12800 titer
same,HI titer,[19],3200 titer
same,HI titer,[20],3200 titer
same,HI titer,[21],6400 titer
same,binding result,fusion protein HBc-122,binds
same,binding result,fusion protein HBc-124,binds
same,binding result,fusion protein HBc-128,binds
same,Neutralization titer,[22],12800 titer
same,Neutralization titer,[23],6400 titer
same,Neutralization titer,[24],12800 titer
same,Neutralization titer,[25],800 titer
same,Neutralization titer,[26],1600 titer
same,Neutralization titer,[27],3200 titer
same,Neutralization titer,[28],6400 titer
same,Neutralization titer,[29],12800 titer
same,Neutralization titer,[30],12800 titer
same,Neutralization titer,[31],1600 titer
same,Neutralization titer,[32],12800 titer
same,Neutralization titer,[33],12800 titer
same,Neutralization titer,[34],12800 titer
same,Neutralization titer,[35],12800 titer
same,Neutralization titer,[36],6400 titer
same,Neutralization titer,[37],12800 titer
same,Neutralization titer,[38],12800 titer
same,Neutralization titer,[39],12800 titer
same,Neutralization titer,[40],6400 titer
same,Neutralization titer,[41],6400 titer
same,Neutralization titer,[42],6400 titer
B2,HI titer,[1],12800 titer
same,HI titer,[2],800 titer
same,HI titer,[3],12800 titer
same,HI titer,[4],3200 titer
same,HI titer,[5],12800 titer
same,HI titer,[6],200 titer
same,HI titer,[7],800 titer
same,HI titer,[8],12800 titer
same,HI titer,[9],1600 titer
same,HI titer,[10],6400 titer
same,HI titer,[11],12800 titer
same,HI titer,[12],12800 titer
same,HI titer,[13],12800 titer
same,HI titer,[14],6400 titer
same,HI titer,[15],12800 titer
same,HI titer,[16],6400 titer
same,HI titer,[17],12800 titer
same,HI titer,[18],< 100 titer
same,HI titer,[19],1600 titer
same,HI titer,[20],< 100 titer
same,HI titer,[21],< 100 titer
same,Neutralization titer,[22],12800 titer
same,Neutralization titer,[24],12800 titer
same,Neutralization titer,[25],12800 titer
same,Neutralization titer,[26],1600 titer
same,Neutralization titer,[27],12800 titer
same,Neutralization titer,[28],12800 titer
same,Neutralization titer,[29],12800 titer
same,Neutralization titer,[31],12800 titer
same,Neutralization titer,[32],12800 titer
same,Neutralization titer,[33],12800 titer
same,Neutralization titer,[34],12800 titer
same,Neutralization titer,[35],12800 titer
same,Neutralization titer,[36],12800 titer
same,Neutralization titer,[37],12800 titer
same,Neutralization titer,[38],12800 titer
same,Neutralization titer,[39],100 titer
same,Neutralization titer,[40],12800 titer
same,Neutralization titer,[42],100 titer
